Assay results reported in patent US20240117038A1 (Ablynx, published 2024).

Columns and labels:
cynomolgus CX3CR1 = biological target: T1, cynomolgus CX3CR1 (cynomolgus monkey (Macaca fascicularis), UniProt P49238 1-355 (human entry)); test: MSD-SET in-solution affinity on cell expressed cyno CX3CR1, 30 uM HSA, geometric mean of N = 3
T1 construct: Overexpressed on CHO K1 cells; also called cyno CX3CR1; cyCX3CR1
T1 chain: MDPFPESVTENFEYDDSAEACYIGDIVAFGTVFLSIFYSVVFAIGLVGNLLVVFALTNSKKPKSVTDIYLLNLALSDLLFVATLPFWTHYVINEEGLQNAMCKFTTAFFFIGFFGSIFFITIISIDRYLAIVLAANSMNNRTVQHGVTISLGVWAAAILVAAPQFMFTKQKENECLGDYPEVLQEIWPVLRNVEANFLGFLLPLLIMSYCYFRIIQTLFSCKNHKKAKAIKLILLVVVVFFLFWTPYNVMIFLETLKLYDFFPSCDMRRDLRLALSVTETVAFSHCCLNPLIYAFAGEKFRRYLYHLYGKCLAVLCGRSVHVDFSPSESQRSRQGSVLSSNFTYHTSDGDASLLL
Protocol: (§1) The affinity was determined on 3 independent assay occasions.

human CX3CR1 [1] = biological target: T2, human CX3CR1 (human, UniProt P49238 1-355); test: cell-based or functional assay
T2 sequence: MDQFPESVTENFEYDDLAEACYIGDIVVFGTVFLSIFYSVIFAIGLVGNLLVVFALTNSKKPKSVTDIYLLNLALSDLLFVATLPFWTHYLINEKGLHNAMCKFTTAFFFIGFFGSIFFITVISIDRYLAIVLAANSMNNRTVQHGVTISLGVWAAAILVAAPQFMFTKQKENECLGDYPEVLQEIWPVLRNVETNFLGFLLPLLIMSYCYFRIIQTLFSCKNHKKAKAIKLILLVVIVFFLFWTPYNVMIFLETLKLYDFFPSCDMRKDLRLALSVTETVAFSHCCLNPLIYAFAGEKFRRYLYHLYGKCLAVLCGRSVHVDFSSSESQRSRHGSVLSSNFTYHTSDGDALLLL

human CX3CR1 [2] = biological target: T2, human CX3CR1; test: cell-based or functional assay; remark: listed apart in the source
human CX3CR1 [3] = biological target: T2, human CX3CR1; test: MSD-SET in-solution affinity on cell expressed human CX3CR1, 30 uM HSA, geometric mean of N = 3
Protocol: as §1

DCC = biological target: T3, DCC (human, UniProt P43146); test: membrane protein array validation: flow cytometry on unfixed cells expressing the protein, serial dilutions in buffer with 10% human serum albumin, fluorescently labeled secondary antibody that binds ISVDs
T3 construct: overexpressed on live cells from an expression plasmid; Tested in the validation titration of the membrane protein array

FCGR2B = biological target: T4, FCGR2B (human, UniProt P31994); test: as above
T4 construct: overexpressed on live cells from an expression plasmid; Tested in the validation titration of the membrane protein array
T4 sequence (membrane protein, looked up): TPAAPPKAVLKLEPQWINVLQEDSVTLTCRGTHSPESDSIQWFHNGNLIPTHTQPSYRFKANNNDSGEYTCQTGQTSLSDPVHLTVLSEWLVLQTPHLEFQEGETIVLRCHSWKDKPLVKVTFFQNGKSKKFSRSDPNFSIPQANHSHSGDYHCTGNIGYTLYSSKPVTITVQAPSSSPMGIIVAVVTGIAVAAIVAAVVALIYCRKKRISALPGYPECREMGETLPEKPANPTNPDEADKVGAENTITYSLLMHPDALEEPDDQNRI

MCAM = biological target: T5, MCAM (human, UniProt P43121 24-646); test: as above
T5 construct: whole, on cells; also called MUC18; cell surface glycoprotein MUC18

DSC1 = biological target: T6, DSC1; test: as above
T6 construct: Tested in the validation titration of the membrane protein array
T6 chain: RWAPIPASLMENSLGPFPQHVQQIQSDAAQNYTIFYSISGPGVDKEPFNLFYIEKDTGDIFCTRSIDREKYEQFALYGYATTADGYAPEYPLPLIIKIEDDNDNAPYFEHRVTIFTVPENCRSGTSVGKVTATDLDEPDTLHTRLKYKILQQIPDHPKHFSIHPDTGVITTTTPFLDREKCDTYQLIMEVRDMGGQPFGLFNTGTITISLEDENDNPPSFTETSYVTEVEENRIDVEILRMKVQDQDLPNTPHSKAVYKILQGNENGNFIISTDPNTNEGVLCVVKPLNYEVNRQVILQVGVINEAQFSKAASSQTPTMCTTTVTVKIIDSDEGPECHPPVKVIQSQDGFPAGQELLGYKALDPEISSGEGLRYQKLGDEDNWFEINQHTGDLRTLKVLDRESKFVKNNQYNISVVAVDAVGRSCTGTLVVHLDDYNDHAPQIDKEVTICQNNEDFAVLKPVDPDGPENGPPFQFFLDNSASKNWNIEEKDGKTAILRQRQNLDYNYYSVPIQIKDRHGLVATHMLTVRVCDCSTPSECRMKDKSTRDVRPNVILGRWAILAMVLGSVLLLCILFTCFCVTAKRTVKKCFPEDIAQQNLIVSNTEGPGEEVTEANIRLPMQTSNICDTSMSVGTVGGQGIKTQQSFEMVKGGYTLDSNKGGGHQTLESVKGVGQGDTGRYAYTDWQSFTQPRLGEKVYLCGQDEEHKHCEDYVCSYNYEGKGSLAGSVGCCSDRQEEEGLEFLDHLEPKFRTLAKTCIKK

T3 sequence (P43146 26-1447 limits assumed): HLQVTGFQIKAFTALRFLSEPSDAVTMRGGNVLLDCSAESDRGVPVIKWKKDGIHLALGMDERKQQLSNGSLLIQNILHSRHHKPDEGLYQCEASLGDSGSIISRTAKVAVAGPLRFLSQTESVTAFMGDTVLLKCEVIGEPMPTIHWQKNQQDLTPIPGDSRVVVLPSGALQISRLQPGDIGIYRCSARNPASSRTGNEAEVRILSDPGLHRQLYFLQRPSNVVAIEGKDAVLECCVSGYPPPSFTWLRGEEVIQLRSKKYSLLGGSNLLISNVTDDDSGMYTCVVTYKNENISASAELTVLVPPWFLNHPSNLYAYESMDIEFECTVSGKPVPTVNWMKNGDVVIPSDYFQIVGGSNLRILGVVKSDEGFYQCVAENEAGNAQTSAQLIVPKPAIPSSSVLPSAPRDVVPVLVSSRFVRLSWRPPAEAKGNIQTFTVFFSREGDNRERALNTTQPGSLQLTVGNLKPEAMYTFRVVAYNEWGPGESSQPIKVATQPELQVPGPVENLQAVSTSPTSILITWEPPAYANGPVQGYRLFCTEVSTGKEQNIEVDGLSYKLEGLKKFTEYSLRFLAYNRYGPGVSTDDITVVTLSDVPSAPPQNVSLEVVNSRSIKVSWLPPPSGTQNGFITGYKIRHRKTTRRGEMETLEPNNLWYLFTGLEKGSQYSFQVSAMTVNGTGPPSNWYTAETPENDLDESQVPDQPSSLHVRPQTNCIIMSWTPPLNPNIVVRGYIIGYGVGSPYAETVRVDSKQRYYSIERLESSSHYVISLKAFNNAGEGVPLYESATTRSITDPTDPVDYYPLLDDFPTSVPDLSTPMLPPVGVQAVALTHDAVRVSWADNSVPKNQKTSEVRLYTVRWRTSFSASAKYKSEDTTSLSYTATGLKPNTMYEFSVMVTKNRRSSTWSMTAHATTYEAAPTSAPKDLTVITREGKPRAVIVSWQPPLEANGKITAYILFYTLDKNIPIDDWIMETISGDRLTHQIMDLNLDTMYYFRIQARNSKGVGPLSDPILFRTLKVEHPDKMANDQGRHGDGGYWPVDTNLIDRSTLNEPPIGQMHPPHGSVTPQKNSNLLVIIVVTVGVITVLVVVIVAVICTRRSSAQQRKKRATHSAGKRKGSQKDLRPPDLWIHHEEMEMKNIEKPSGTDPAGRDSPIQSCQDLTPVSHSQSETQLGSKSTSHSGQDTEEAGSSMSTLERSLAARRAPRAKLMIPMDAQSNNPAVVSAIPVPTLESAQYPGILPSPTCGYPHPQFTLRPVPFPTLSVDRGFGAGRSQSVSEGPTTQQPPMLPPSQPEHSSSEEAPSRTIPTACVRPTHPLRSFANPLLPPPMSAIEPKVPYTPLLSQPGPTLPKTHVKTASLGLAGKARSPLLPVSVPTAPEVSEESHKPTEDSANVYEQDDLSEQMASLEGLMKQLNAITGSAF

Kd (cynomolgus CX3CR1): 0.11 nM
arbitrary migration index (GM), classical monocytes of healthy donors, 625 pM (human CX3CR1 [1]): 1.15 fold change to media control
arbitrary migration index (GM), classical monocytes of healthy donors, 2500 pM (human CX3CR1 [1]): 1.09 fold change to media control
arbitrary migration index (GM), classical monocytes of healthy donors, 10000 pM (human CX3CR1 [1]): 1.05 fold change to media control
arbitrary migration index (GM), classical monocytes of healthy donors, 40000 pM (human CX3CR1 [1]): 1.27 fold change to media control
arbitrary migration index (GM), intermediate monocytes of healthy donors, 625 pM (human CX3CR1 [1]): 1.26 fold change to media control
arbitrary migration index (GM), intermediate monocytes of healthy donors, 2500 pM (human CX3CR1 [1]): 1.14 fold change to media control
arbitrary migration index (GM), intermediate monocytes of healthy donors, 10000 pM (human CX3CR1 [1]): 1.04 fold change to media control
arbitrary migration index (GM), intermediate monocytes of healthy donors, 40000 pM (human CX3CR1 [1]): 1.13 fold change to media control
arbitrary migration index (GM), non-classical monocytes of healthy donors, 625 pM (human CX3CR1 [1]): 1.05 fold change to media control
arbitrary migration index (GM), non-classical monocytes of healthy donors, 2500 pM (human CX3CR1 [1]): 1.08 fold change to media control
arbitrary migration index (GM), non-classical monocytes of healthy donors, 10000 pM (human CX3CR1 [1]): 0.82 fold change to media control
arbitrary migration index (GM), non-classical monocytes of healthy donors, 40000 pM (human CX3CR1 [1]): 0.91 fold change to media control
fold inhibition of monocyte migration (A041600035 VS IRR VHH), healthy, CD16+ monocytes (human CX3CR1 [2]): 2.34 fold
fold inhibition of monocyte migration (A041600035 VS IRR VHH), healthy, CD16- monocytes (human CX3CR1 [2]): 1.5 fold
fold inhibition of monocyte migration (A041600035 VS IRR VHH), healthy, total monocytes (human CX3CR1 [2]): 1.82 fold
fold inhibition of monocyte migration (A041600035 VS IRR VHH), lupus nephritis, CD16+ monocytes (human CX3CR1 [2]): 1.9 fold
fold inhibition of monocyte migration (A041600035 VS IRR VHH), lupus nephritis, CD16- monocytes (human CX3CR1 [2]): 1.71 fold
fold inhibition of monocyte migration (A041600035 VS IRR VHH), lupus nephritis, total monocytes (human CX3CR1 [2]): 1.71 fold
Kd (human CX3CR1 [3]): 0.13 nM
binding result (DCC): no binding (tested: 20 ug/ml)
binding result (FCGR2B): no binding (tested: 20 ug/ml)
binding result (MCAM): no binding (tested: 20 ug/ml)
binding result (DSC1): no binding (tested: 20 ug/ml)
B1: A041600035 (VHH)
chain: DVQLVESGGGSVQPGGSLRLSCAASGSIFSSTAMAWYRQAPGKQRDLVAVISTVGITKYADSVKGRFTISRDNAKNTVYLQMNSLRPEDTALYYCTSDARRGWDTRYWGQGTLVTVSSGGGGSGGGSEVQLVESGGGSVQPGGSLRLSCAASGSIFSSTAMAWYRQAPGKQRDLVAVISTVGITKYADSVKGRFTISRDNAKNTVYLQMNSLRPEDTALYYCTSDARRGWDTRYWGQGTLVTVSSGGGGSGGGSEVQLVESGGGVVQPGGSLRLSCAASGFTFRSFGMSWVRQAPGKGPEWVSSISGSGSDTLYADSVKGRFTISRDNSKNTLYLQMNSLRPEDTALYYCTIGGSLSRSSQGTLVTVSSA
notes: Trivalent ISVD construct (two anti-CX3CR1 ISVDs, one anti-albumin ISVD), C-terminal alanine included in the entry; also called 54A12_SO (E1D)-9GS-54A12_SO-9GS-ALB23002-A
